Source: patent US7700353B2, “Compositions and methods for inducing apoptosis in tumor cells” (E-P Therapeutics, Inc., priority 1998, dated 2010)

B1: rtEa-4: recombinant Ea-4 peptide of rainbow trout pro-IGF-I, 74 amino acid residues (SEQ ID NO: 2) (protein)
chain: RSVRAQRHTDMPRTPKVSTAVQNVDRGTERRTAQHPDKTKTKKKPLSGHSHPSCKEVHQKNSSRGNTGGRNYRM
modifications: Oncorhynchus mykiss
B2: hEb: chemically synthesized human Eb peptide of pro-IGF-I, 77 amino acid residues (SEQ ID NO:1) (peptide, listed as Homo sapiens)
chain: RSVRAQRHTDMPKTQKYQPPSTNKNTKSQRRKGWPKTHPGGEQKEGTEASLQIRGKKKEQRREIGSRNAECRGKKGK

Experiments:
[1] = system: MCF-7, HT-29, HepG2, ZR-75-1, SK-N-F1, or HC cells; assay: Morphological change assay in tumor cell lines; format: cell-based, human and fish
Procedure: Approximately 1-2×10^5 of MCF-7, ZR-75-1, HT-29, HepG2, 293GP, HC or SK-N-F1 cells re-suspended in their respective basal medium without fetal bovine serum (FBS) were plated in a 6-well culture chamber. Prior to plating cells, an acid-washed coverslip was placed in each well of the culture chamber. Recombinant rainbow trout E-peptides (rtEa-2, rtEa-3 or rtEa-4 peptide at 0.8 µM), human IGF-I (hIGF-1, 2.5 nM) or the same amount of control protein was added to each well and the cell cultures were incubated at 37° C. under a humidified atmosphere of 5% CO2. The control protein was prepared from E. coli cells carrying the expression plasmid but without the E-peptide gene according to the purification method described by Tian et al. (1999). Coverslips were removed from the culture chamber 24 hours after initiation of the treatment and observed under an Olympic inverted microscope equipped with differential interference phase contrast objective lenses or phase contrast objective lens (final magnification, 200×). The morphological change assay was performed at least 10 times with different batches of Ea-4 peptide preparations.
Oncogenic transformed or established cancer cells derived from human and fish (MCF-7, HT-29, HepG2, ZR-75-1, SK-N-F1, or HC cells) were plated in their respective serum-free basal medium supplemented with 0.8 µM of the trout recombinant Ea-4-peptide, with the control protein, or with 2.5 nM of the recombinant hlGF-I and the cultures were examined 24 hours later under an inverted microscope equipped with differential interference phase contrast objectives. […] The rtEa-4 peptide treated cells developed several pseudopodia-like structures to establish contact with neighboring cells similar to that seen in untransformed or non-malignant cells.
Because each of these tumor cell lines obtained from ATCC contains a mixed population of tumorous and nontumorous cells, only between 25-40% of the cells from each cell line responded to induction by rtEa-4-peptide. […]

[2] = system: HT1080 cells; assay: Matrigel invasion assay; format: cell-based, human; conditions: for # invaded cells/view (MIC): Matrigel insert; for # invaded cells/view (MIC) / # invaded cells/view (CIC): 24 hours; for # invaded cells/view (CIC): control insert
Procedure: Invasion assays were conducted in BIOCOAT MATRIGEL invasion chambers following the procedure provided by Becton Dickinson Labware (Bedford, Mass.; 40480 and 40481 guidelines). According to these procedures, 1×10^6 of HT1080 cells in DMEM supplemented with 1.25% FBS, with Ea-4 peptide (0.17 µM and 0.34 µM), or the same amount of the control protein, were plated in each insert of the Matrigel or control invasion chambers. The inserts were placed in the respective chambers containing DMEM medium supplemented with 10% FBS, and the chambers were incubated at 37° C. under a humidified atmosphere of 5% CO2 for 24 hours. After removal of the non-invaded cells with cotton swabs, the invaded cells on the other side of the membranes were stained with the Diff-Quick T stain (Becton Dickinson Labware, Bedford, Mass.) and observed under an Olympic inverted microscope (magnification, 200×). Control proteins were prepared from E. coli cells carrying the expression plasmid without the Ea-4-peptide gene by the same purification method (Tian et al., 1999). The assay was repeated three times.

[3] = system: chorioallantoic membrane (CAM) of chick embryos; assay: Chick embryo chorioallantoic membrane (CAM) angiogenesis assay; format: in vivo; conditions: day 7
Procedure: A suitable assay is the chick embryo chorioallantoic membrane (CAM) assay described by Crum et al. Science 230:1375 (1985). See also, U.S. Pat. No. 5,001,116, hereby incorporated by reference, which describes the CAM assay. Briefly, the Ea-4 peptide (40 µg and 80 µg), endostatin (5 µg and 10 µg) and a PBS control buffer were delivered onto the chorioallantoic membrane (CAM) of three-day old chick embryos. The CAMs were photographed in ovo with a digital camera on day 7. The angiogenic response was assessed by counting the number of intersect points of the blood vessels spread out in a defined field (vessel density). […] The effect is quantified in the histogram in FIG. 17.
Each were dissolved in PBS, and various and known amounts of hEb-peptide (250 µg, 500 µg and 1000 µg respectively) and human endostatin (10 µg and 20 µg respectively) were applied to the CAM. Pictures were taken on day 7 for vessel density determination.

[4] = system: MDA-MB-231 cells on chicken CAM; assay: Human breast cancer cells seeded on chicken CAM; format: in vivo; conditions: single or multiple doses, five day old chicken embryos
Source text: The invasion of MDA-MB-231 cells in the chicken embryos was further confirmed by immunocytochemistry. […] The activity in the widely accepted chicken model, provides ample support for the belief that the methods of the invention can be used to treat cancer in animals as well as humans.

[5] = system: SK-N-F1 neuroblastoma cells; assay: Neurite-like process outgrowth / morphological differentiation; format: cell-based, human; conditions: 2 h

Molecule	morphological change ([1]; 0.8 μM, 24 hours, serum-free basal medium)	cells from each cell line responding to induction ([1]; mixed population cell lines from ATCC)	% Invasion ([2]; 0.17 μM) [%]	% Reduction of invasion ([2]; 0.17 μM) [%]	# invaded cells/view (MIC) ([2]; 0.17 μM) [cells/view]	# invaded cells/view (CIC) ([2]; 0.17 μM) [cells/view]	% Invasion ([2]; 0.34 μM) [%]	% Reduction of invasion ([2]; 0.34 μM) [%]	# invaded cells/view (MIC) ([2]; 0.34 μM) [cells/view]	# invaded cells/view (CIC) ([2]; 0.34 μM) [cells/view]	invasive activity ([2]; 0.17 and 0.34 μM)	blood vessel branching ([3]; 40 μg and 80 μg on CAM of three-day old chick embryos)	growth and invasion of MDA-MB-231 cells and induction of blood vessel formation on chicken CAM [4]	vessel density ([3]; 250, 500 and 1000 μg on CAM)	Neurite length ([5]; 0.4 μM) [μm]	Neurite length ([5]; 1.6 μM) [μm]	Neurite length ([5]; 3.2 μM) [μm]
B1	flattened out and attached tightly to the culture dish	25-40%	19	52	30 ± 5	157 ± 6	15	62	24 ± 1	157 ± 6	dose-dependent reduction	inhibitory effect	inhibited	–	–	–	–
B2	–	–	–	–	–	–	–	–	–	–	–	–	inhibited	dose-dependent reduction	30 ± 1.6	33 ± 3.8	33 ± 2.8
